In US20240216557A1 (Memorial Sloan Kettering, published 2024):

T1: DLL3 on H82 xenograft tumor cells (UniProt Q9NYJ7 27-618, limits assumed)
T1 construct: whole, on cells; H82 is a human SCLC line by general knowledge
T1 sequence (looked up): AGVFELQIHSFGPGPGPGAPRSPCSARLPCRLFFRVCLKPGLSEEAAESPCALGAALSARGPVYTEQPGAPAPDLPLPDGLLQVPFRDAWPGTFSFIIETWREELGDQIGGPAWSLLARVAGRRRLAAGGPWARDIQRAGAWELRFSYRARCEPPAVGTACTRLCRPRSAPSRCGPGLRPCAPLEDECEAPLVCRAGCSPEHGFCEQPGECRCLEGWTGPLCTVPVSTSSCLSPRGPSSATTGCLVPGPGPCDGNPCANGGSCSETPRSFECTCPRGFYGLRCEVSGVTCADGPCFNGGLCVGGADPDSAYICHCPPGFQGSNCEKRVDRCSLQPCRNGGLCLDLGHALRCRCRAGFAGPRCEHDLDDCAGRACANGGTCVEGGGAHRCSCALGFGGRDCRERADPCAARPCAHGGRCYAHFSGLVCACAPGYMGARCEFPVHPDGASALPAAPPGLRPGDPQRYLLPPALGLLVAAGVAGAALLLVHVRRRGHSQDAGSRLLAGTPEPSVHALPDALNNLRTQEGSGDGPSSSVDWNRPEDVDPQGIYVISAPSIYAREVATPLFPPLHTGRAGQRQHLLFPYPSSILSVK


What was measured:
[1] = molecular target: T1, DLL3 on H82 xenograft tumor cells; assay: immunoPET imaging of athymic mice bearing right flank subcutaneous H82 xenografts after tail vein injection of the Zr-89 labelled antibody; time point not printed on the sheet
Method: (§1) To ensure adequate binding to DLL3 in vivo, the three antibodies were first bioconjugated to p-SCN-Bn-DFO chelators and then radiolabeled with Zr-89 for injection via tail vein into athymic female mice bearing right flank subcutaneous H82 xenografts (250-300 Ci, 30 μg). ImmunoPET imaging was performed every 24 h until 120 h, when a terminal ex vivo biodistribution study was performed.

[2] = molecular target: T1, DLL3 on H82 xenograft tumor cells; assay: immunoPET and ex vivo biodistribution of the Zr-89 labeled antibody in mice with H82 xenografts
Method: as §1

binding result [1] | binding result [2] | Binder
binds | – | [89Zr]Zr-DFO-J8 antibody (antibody, V domains shown, p-SCN-Bn-DFO chelator bioconjugated to the antibody (sites not given), radiolabeled with Zr-89, also called J8 (monoclonal IgG4, DFO-conjugated, Zr-89 labeled)) VH: QVHLVQSGAEVKKPGASVKVSCKASGYTFTIYYIHWVRQAPGQGLEWMGIINPSGGSTSYAQKFQGRVTMTRDTSTSTVYMELSSLRSEDTAVYYCSGNDYVDYVTTDYYGMDVWGQGTTVTVSS VL: DIQMTQSPSSLSASVGDRVTITCRASQGISNYLAWFQQKPGKAPKSLIYAASSLQSGVPSKFSGSGSGTDFTLTISSLQPEDFATYYCQQYNSSPYTFGQGTKLEIK
– | binds | E9 monoclonal IgG4 antibody bioconjugated to p-SCN-Bn-DFO and radiolabeled with Zr-89 (antibody, V domains shown, p-SCN-Bn-DFO chelator bioconjugated to the antibody (sites not given), radiolabeled with Zr-89) VH: QVQLVQSGAEVKKPGASVKVSCKASGYTFTSYYMHWVRQAPGQGLEWMGVINSSGGSTSYAQKFQGRVTMTRDTSTSTVYMDLSSLRSEDTAVYYCARGYCTNGVYYDEDFDYWGQGTLVTVSS VL: DIQMTQSPSSLSASVGDRVTITCRASQGISHYLAWFQQKPGKAPTSLIYAASSLQSGVPSKFSGSGSGTDFTLTISSLQPEDFATYYCQQYNSYPLTFGGGTKVEIK
